Data taken from paper doi:10.1101/2024.04.26.587986 (bioRxiv, 2024).

Target: the molecule itself
Test: SEC

B1: β-galactosidase (GLB1), endogenous in mouse brain (enzyme, mouse (endogenous in mouse brain), UniProt P23780 30-647, looked up)
chain: QRTFKLDYSRDRFLKDGQPFRYISGSIHYFRIPRFYWEDRLLKMKMAGLNAIQMYVPWNFHEPQPGQYEFSGDRDVEHFIQLAHELGLLVILRPGPYICAEWDMGGLPAWLLEKQSIVLRSSDPDYLVAVDKWLAVLLPKMKPLLYQNGGPIITVQVENEYGSYFACDYDYLRFLVHRFRYHLGNDVILFTTDGASEKMLKCGTLQDLYATVDFGTGNNITQAFLVQRKFEPKGPLINSEFYTGWLDHWGKPHSTVKTKTLATSLYNLLARGANVNLYMFIGGTNFAYWNGANTPYEPQPTSYDYDAPLSEAGDLTKKYFALREVIQMFKEVPEGPIPPSTPKFAYGKVALRKFKTVAEALGILCPNGPVKSLYPLTFTQVKQYFGYVLYRTTLPQDCSNPKPIFSSPFNGVRDRAYVSVDGVPQGILDRNLMTALNIRGKAGATLDILVENMGRVNYGRFINDFKGLISNMTINSTVLTNWTVFPLNTEAMVRNHLWGREASDEGHLDGRSTSNSSDLILPTFYVGNFSIPSGIPDLPQDTFIQFPGWSKGQVWINGFNLGRYWPTMGPQKTLFVPRNILTTSAPNNITVLELEFAPCSEGTPELCTVEFVDTPVIS
stoichiometry N: 4
